This data set in a line: soluble on expression in E. coli; label from the status in PepcDB or PDB records.
Take “MQPLERSLTGAVGAALAAAGLRSRSGLEKVVLTGLGAGLIAVAARGQNPLATALKIEQNDEGETVVRDAVTIGKPAEQLYAVWRDLPGLPLLMTHLRSVEVLDDKRSRWTVEAPAPLGTVSWEAELTADEPGKRIAWRSLPGARIENSGEVLFRPAPGARGTEVVVRLTYRPPGGSAGAVIARMFNQEPSQQLRDDLMRFKREQELGLEHHHHHH”: the “soluble on expression in E. coli” value was “not soluble”. For “MQPLPDPKPNTQKEHHPVDRNFIAMIDDLKTTQIPWQKPGHIMTEDEQKMWNATRMREYRRKSNETLEKSKSMLDGLKSQCTVNTVVLKNMLITKSVEDSVKLNAARFLGKSEKELMDIPEIKQMFQQYWNCRKTASNSHYEQRSLIYLDRVVSLQTEYLNYKANRNDSRSPSQLVKKIKDATMKAEAYEFFMDDKRVRKVIGELNEIDSKFKENIGAWLLQQLKIDSSLSHLLST” the value was “not soluble”; for “MQPSFRIVADGTDVTQRLNDRLLKLTLLDKPGMESDSLTLRIDDRDGQVALPRRGAVLEVHLGYAGEPLMRMGRFTVDTLQWAGPPDCLTVTAKAGDMRGSGKTIRSGGWEGTTLAQVCRDVGARNGWRVECPLQVAIARVDQVNESDYHFVTRLARQYDCTAKLAEGMLMVLPRQSGQSATGRRIEPLVLGRADVGSFDVTFDDRSLMRTVKTRYQLPGSGEVKSVELKNPKAPATAMGEHVDRHLYTSRGEAEQAAKARLASFSRSSASVRLELPGRGDLFAERSLLLQGFKAGIDGEFLIDSVEHTYSSSGWTTVVQCNGGRGGKG”, “not soluble”; for “MQPYTAPSEIALRQLDYFADKHVLVAGEVEDRFPIELRQYCASVSVFTTHYGYYSQLKAYPEITRYFGEQLTADLNADLILLYWPKAKQEAEYLLAMLLAKLGTGTEIVVVGENRSGVKSIEKMFAAYGPIHKYDSARRCSFYWGHCVHTPAAFDIEQWFKSYAVDYQGHELTIRSLPGVFSHGEFDLGSRLLLDTLPPLSGKVIDIGSGAGVLGCVMAKLNPHIELEMTDISALAIRSSQETLVANQLHGHVYPSDMFSDTGHHYNYIVTNPPFHSGLETSYSATERLLAESVDHLASGGSIWVVANSFLKYPPILEQAFGHCDIAAKTNKFAIYHAKK”, “not soluble”. For the sequence “MQQANLGDGVATARLLSRSDWGARLPKSVEHFQGPAPYVIIHHSYMPAVCYSTPDCMKSMRDMQDFHQLERGWNDIGYSFGIGGDGMIYTGRGFNVIGAHAPKYNDKSVGIVLIGDWRTELPPKQMLDAAKNLIAFGVFKGYIDPAYKLLGHRQVRDTECPGGRLFAEISSWPHFTHINDTEGVSSTTAPVVPHVHPQAAAPQKPHQSPPAAPKV”, the “soluble on expression in E. coli” value was “soluble”. The same measure for “MQQFHIRRLREEDIPLLKGLLVELDTSHYEAEPNFYRSPEEMAQLREERGVFDKYFDDSMIAFIACSHRQVVGFISGTVRDIDSMVSVAKRVGFVNELVVSESHRNLGIGLSLMDKIESDLCNQGIEEIGLTVASFNHEGEDFYHKMGYRVMTKMMSKRVKDLEHHHHHH”: “soluble”; for “MQRCDWVSQDPLYIAYHDNEWGVPETDSRKLFEMICLEGQQAGLSWITVLKKRENYRACFHQFDPIRIAAMQEEDVERLLQNTGIIRHRGKIQAIISNARAWLAMEQNGESFADFVWSFVDGQPQITQAASLDKIPTSTPASDALAKALKKRGFKFVGTTICYSFMQACGLVNDHITGCFCHPG”: “soluble”. For “MQRYLWQQADGKRHVYDTARHRVQAGRPFTALCGETVTPQTERGDLTAGLWFDGECPVCTIALAKALGWPVREISDLAHRFDWSPALITRLAEVLHCSFGEVVELTGARMVDA”, the “soluble on expression in E. coli” value is “not soluble”. For “MQRYNSTYVVKRDGRKEDVHFDKITSRIQKLSYGLNMDFVDPVAVAIKVISGLYKGVTTVELDNLAAETAASMTTQHPEYALLAARIAVSNLHKKTNKVFSEVMKTLHEFHHPHTGKHAPMISDETWAIIEKNADKLNSAIVYDRDYSYTYFGFKTLERSYLLKINKEIVERPQQMLMRVSIGIHGDDITSAIETYNLMSERYMTHASPTLFNSGTCRPQMSSCFLLTMSEDSILGIYDTLKQCALISKSAGGIGLNVHKIRATGSVIAGTNGTSNGLIPMLRVYNNTARYVDQGGNKRPGAFAIYLEPWHADIFEFVSLRKNTGPEEERARDLFLALWIPDLFMKRVEKDQEWSLMCPCECPGLDDCWGEEFEALYAKYEAEGRVRKTVKARKLWEHIVSNQIETGLPYITYKDAANRKSNQQNLGTIKCSNLCTEIIEYSAPDEIAVCNLASIALNRYVTPEKKFDFVKLAEVTKVITRNLNKIIDVNYYPVEEARNSNMRHRPIGLGVQGLADCFMLMRYPFTSAEARDLNKRIFETIYYAALEASCELAELNGPYSTYEGSPVSKGQLQFDMWGVTPTDQCDWATLRKKIAKHGIRNSLLMAPMPTASTAQILGNNESIEPYTSNIYSRRVLSGDFQIVNPHMLKDLVERGLWTDEMKNRLIANNGSIQNIDGIPSDIKELYRTVWEISQKDIIEMAADRGAYIDQSQSLNIHMAKPSYAGITSMHFYGWKKGLKTGMYYLRTKPAVNAVQFTVDKNALKTNQQAETPATVAESQDEGCLMCSG” the value was “not soluble”; for “MQSEKIAQLKAALQNFSASNSDLFDYALEEEKAKVRKRALLLLDQRARSVYELTNRLISADFDPNIVEYVVEDLVRANLLNDENFSREWVRQRRQRRGKSRQALTRELRDKGIKSEIIADVVGDIQPEDEQDIARELAYKKVRSLKKEPCDYPEYQKVLRRTVGVLARRGFSQSMALEIAREAIDARIDEIRR”, “not soluble”. The same measure for “MQSQRAYELIKAEIFKRLGVNRTDAYKDSYLQRRIRARMRKLGISDYMEYYKILKSNKEEFEELLLTIAINVTEFFRDPIVWKTFQNKILPELVQFKKSKGFRSIKIWSAACSTGQEPYSIAMTLYEVLGENLGGFRVSILATDIDKEALQIAMRGEYPVDAVEKQVPRHMIYKYFDRISEERYRIKPHVKRLVTFRWFNLLSSIYPKGFDVIFIRNVLIYMSKEAQEDIFRKLYDSLEDHGYLILGKTETILGRSANLFKLYDLVAKVYKKNLGVKGNG”: “soluble”; for “MQSVELPETHQMLLQTCRDFAEKELFPIAAQVDKEHLFPAAQVKKMGGLGLLAMDVPEELGGAGLDYLAYAIAMEEISRGCASTGVIMSVNNSLYLGPILKFGSKEQKQAWVTPFTSGDKIGCFALSEPGNGSDAGAASTTARAEGDSWVLNGTKAWITNAWEASAAVVFASTDRALQNKSISAFLVPMPTPGLTLGKKEDKLGIRGSSTANLIFEDCRIPKDSILGEPGMGFKIAMQTLDMGRIGIASQALGIAQTALDCAVNYAENRMAFGAPLTKLQVIQFKLADMALALESARLLTWRAAMLKDNKKPFIKEAAMAKLAASEAATAISHQAIQILGGMGYVTEMPAERHYRDARITEIYEGTSEIQRLVIAGHLLRSYRSAENLYFQ”: “soluble”; for “MQSVLNLGKTTVTTCTFLRAASTSLQGKGPLKTNWKENVVYLYQFPRPANRQPNLSPYCLKIETFLRANRIKHEVVGTWLTLRQSPRGLLPFIELNGQQISDSQVIVWKLQKHFDLDDKLEGSDRGTARAVERMIDLSTNYALLVDKTVNNAHLLLARQVSNLPLPSFLTNYLAKGFSQTARKRVNGVLGKLDVAEQKELLRRDIRAIDDILGDKKFLFGDRITSVDCSVFGQIGAVFYLPYRQQISDLLEDDFPRVRAYCDRIRQHYYPEWRDD”: “not soluble”. The same measure for “MQTFNRERLEFALDKRGCTQTKLAELLGITARQVRNYVKDEQIPDLNELANLLEFPVHFFTNDERLPELKSQAVSFRARSRTSKRLEKQALNHSITAFLLNDWLETEFTLSQAVLPDFSDISPEEAAQELRLEWGLGNEPIPNMITLLEVKGVRVFSLSLDTKDIDAFCTWYENHPFVFLNTQKSAERSRFDAAHELGHLIRDKYSMEHSKNSEITEDEPRDIIEKEANAFASAFLMPEAALRLYRHVPITIENLLKIKRRFGVSLVALAYRMHKLGMITDRMYIHNLCPLFAKKKYRTIEPEPMEREISSALRKMLTILKNDGIGIEQIAENLNVSPKDVADLTFGLVERDLNRYRKLRLVK”: “not soluble”; for “MQTLKSDIRNRILSAAKEQFMQRGYLKTSMREIADAVDVGVGNLYNYFENKDELFCVILRPVSDALERMLQEHHGAKGADIMLICSEEYLKSAVDEYISLINKHGELMKILLFHSQGSSLETFREDYTNRSTEIVKTWFAEMKEKHPEINVVVSDFMIHLQAVWMFTLFEEMLKHAIDSKEMEYIVHEYILFEIQGWRALLRV”: “not soluble”; for “MQTPSKKYVVDIWSDFVCPWCWIAKRRFENALNRSGMQDDVQVNVRAYRLAANQAPEPMIGALKRKLGNPASADSMMSTVSKYGRADGLDYRFDTMMFGDTADAHILVKAVEDTAVKKRLVEALYEQSTSHGRSLFDRSSLEAIAREVGVSDESIQLAWSSVELRNEMKDDESFAAQLGSGVPLFVFDSSFSVSGAQPDAVFLEALNKMVANSNPEDSSMMGQVCSIDGCKVLEHHHHHH”: “not soluble”.

As for “MQVSDLFIREMPSDCLPRERLLAIGEKALSNQELLAILLRTGSKEADVMTVAATLLKQFKQLSYLQQATLNELMAIKGIGQVKAIELRAAIELGCRIYQSSQIKFGKVTSSQQVAQRLLQEMKGLQQEHLICIYLNTKNDIIQQKTIFKGSLNQSIAHPREIFREAVKYSSARILLAHNHPSGNPTPSPQDIQFTKRMEECGEMMGIQLLDHIILGDSGYISLREENFFASE”, the “soluble on expression in E. coli” value is “not soluble”.

For “MQVSRFLTSFHRLSTALPASTEKYYFETVKHDNRNEVVDFLNNNFRVEEPLSKAAGMTESDIQSCFDGVFERVLKNEVSILARSKQSDEIVGCMLNSVWKRNDPKKNEDEAEDFEFGGDRKGVMTIGEILNELHESFWKLRPDQHTVLHFEISSVNKNHQRQGLASKFMNWTEKKELLKVIEASSIVAEASSLANQILLSKRGYETVASTLLSSRIDVNGKQILVCDDGTDRVDLVFKELN”, the “soluble on expression in E. coli” value is “not soluble”. For “MQYHEPVWIPAHLTTGEPDSFAAFTLEERLPAILDNLANHADARTDQALQQLAVEIREGEITPLPPVILGLFDQVIKPYTGRRWTDMPFLTVELYFYARILLAFGHTATTLVDPFHPIKNTVSLQAIESLTTMTGYCDSDCDITGLLRWSMTGNTADLSQQVVTDAGQISLLVDESYVAGGLFDSGLNRIDFVFDNAGMDVLTDLLLILRISRHCSRIVAHVRPWPMFVSDVTMTDMKYLIRKLVTSSIPAAKKLGEDITQLLHQNRLIFRSSSALGLPVCFCEEEALTRETFENTELVIFKGDLNYRYFVGDRRWPHTMEKRYFFERFSQPAICLRTLKSEVLVGLPADIATRTLHLQPDWLTSGRYGIIQVFAHMAGDPNSLEHHHHHH” the value was “not soluble”; for “MRACLKCKYLTNDEICPICHSPTSENWIGLLIVINPEKSEIAKKAGIDIKGKYALSVKE”, “soluble”; for “MRAELWQEQRLQLSLTKELVQAIELLQYSAADLEAFLYEQSLENPFLEIRRTRVRQRPSRTERDQKQWLENIGARAETLVGHLLSQLPALKLGDREERIVRYLIASLDEDGYLRVPLAELAARFSASEQEMERGLRLVQSLDPPGVGARDLAECLLLQLERLPERDELAETIVRYHFVPFAEKSWKTLAKQLGVSLGELQRVFELIRTLEPRPGIHYSSETLPLVVPDVIVTRGADGDWMAAYNDDIHPELGWNRDYERRIAASGDRHAEQFIKEKYRQFTWLAKSLEQRKQTLLHLMAVIIDRQRSCLEFGLSALKPMTMREVAEELGVHESTVSRAVRHKYVQTPFGTVELRRFFSNAATAAGDEAASSAHVKAIMEALISEEDRRAPLSDQQLADLLRDRYGIAISRRTVAKYREQLRIPSSAKRRQYIGLP”, “not soluble”.

The values above are taken from the DeepSol protein solubility set.
